Experimental data published in publication PMC7005872.

Molecular target: TBC1D9 (UniProt Q6ZT07)
Test: co-IP of GFP-TBK1 and FLAG-TBC1D9
Conditions: reference: GFP-TBK1 wild type; sites S172

binding against the reference: lost
Substance: TBK1 (from UniProt Q9UHD2) GFP-TBK1 S172A
